The target in one assay is T1, CrkII^FL monomer (Homo sapiens, UniProt P46108).
T1 construct: full length CrkII (CrkII^FL; UniProt P46108-1, residues 1–330); 8-His tag with TEV protease cleavage site (N); made in house; host or cells: E. coli C41 (DE3)
The assay can be described thus: SPR, CrkII FL monomer binding to immobilised PEAK proteins. Particulars: interactor as analyte over biotinylated PEAK protein (biotin CAPture); Biacore 8K+, HBS-TP with 500 mM NaCl, 20 °C; steady-state fit; mean ± SD (N = 2). How it is done: (§1) SPR binding studies of PEAK PRM peptides to CrkII^NSH3 were performed using a Biacore S200 Instrument (Cytiva). Purified CrkII^NSH3 was diluted to 5 µg ml^−1 in 10 mM sodium acetate pH 4.0 and amine coupled at 25 °C to a Series S CM5 sensor chip, in HBS-N running buffer (20 mM HEPES pH 7.4, 150 mM NaCl) to a final immobilization level of 1100–1400 response units (RU), followed by surface deactivation using 1 M ethanolamine. A blank activation/deactivation was used for the reference surface. Peptide binding studies were performed at 20 °C in HBS-TP running buffer (20 mM HEPES pH 7.4, 150 mM NaCl, 1 mM TCEP, 0.005% (v/v) Tween-P20). […] Peptide stocks were further diluted to in running buffer to 10 or 20 µM and prepared as a 11-point concentration series (2-fold serial dilution, […] for PEAK PRM peptides, or 20 µM–20 nM for PEAK tandem motif peptides). Samples were injected in a multi-cycle run (flow rate 30 µl min^−1, contact time of 60 s, dissociation 120 s) without regeneration. Sensorgrams were double referenced, and steady-state binding data fitted using a 1:1 binding model using Biacore S200 Evaluation Software (Cytiva, v. 1.1).
(§2) SPR binding studies of PEAK proteins to full length CrkII/Grb2 and sub-domains were performed using a Biacore 8K+ Instrument (Cytiva) and analyzed using Biacore Insight Evaluation Software (v. 3.0.12.15655). […]

The next assay has as its target T2, CrkII^SH2 (Homo sapiens, UniProt P46108).
T2 construct: CrkII^SH2; UniProt P46108-1, residues 6–120; 8-His tag with TEV protease cleavage site (N); made in house; host or cells: E. coli C41 (DE3)
The assay is described as follows: SPR, CrkII SH2 binding to immobilised PEAK proteins. Particulars: interactor as analyte over biotinylated PEAK protein (biotin CAPture); Biacore 8K+, HBS-TP with 500 mM NaCl, 20 °C; steady-state fit; mean ± S.E.M. (N = 3). As to the method:
as §1
(§3) SPR binding studies of PEAK proteins to full length CrkII/Grb2 and sub-domains were performed using a Biacore 8K+ Instrument (Cytiva) and analyzed using Biacore Insight Evaluation Software (v. 3.0.12.15655). […] Binding studies and steady-state data analysis were performed as described for CrkII^NSH3 with the inclusion of an additional surface regeneration step (60 s injection of 1 M NaCl) between cycles.
In general terms: SPR reads the build-up and loss of mass on a sensor chip optically.

The next assay deals with 14-3-3ɣ. The assay can be described thus: SPR, 14-3-3ɣ binding to immobilised PEAK proteins. Details: species or system human. To be noted: 14-3-3ɣ analyte 0.46–1000 nM, multi-cycle, over immobilised biotinylated PEAK protein; Biacore 8K+, 20 °C; KD only an estimate (bivalent analyte model); N = 3. As to the method: PEAK proteins and adapters proteins (full length or individual domains) were biotinylated using EZ-Link™ NHS-PEG4-Biotin (Thermo Fisher) at a 1:1 molar ratio (100 µM) for 1 h at room temperature, then excess biotin was removed by buffer exchange using a Zeba™ Spin Desalting Column (Thermo Fisher) into HBS-T buffer (20 mM HEPES pH 7.4, 150 mM NaCl, 1 mM TCEP).
SPR binding studies of PEAK proteins to full length CrkII/Grb2 and sub-domains were performed using a Biacore 8K+ Instrument (Cytiva) and analyzed using Biacore Insight Evaluation Software (v. 3.0.12.15655). […] Biotinylated PEAK proteins (with or without Src phosphorylation; 500 nM in HBS-TP) were immobilized using a biotin CAPture kit (Cytiva) in HBS-TP running buffer at 20 °C. Binding studies and steady-state data analysis were performed as described for CrkII^NSH3 with the inclusion of an additional surface regeneration step (60 s injection of 1 M NaCl) between cycles. For Grb2^FL, Grb2^SH2, CrkII^SH2, CrkII^FL monomer and CrkII^FL dimer, to reduce nonspecific interactions the HBS-TP running buffer was supplemented with additional NaCl to a final concentration of 500 mM.
Binding studies for 14-3-3ɣ were undertaken in the same way in multi cycle mode (8 point, 3-fold serial dilution series, 0.46–1000 nM, 60 s contact time, 300 s dissociation).

The target of the next assay is T3, CrkII^FL dimer (Homo sapiens, UniProt P46108).
T3 construct: full length CrkII (CrkII^FL; UniProt P46108-1, residues 1–330); 8-His tag with TEV protease cleavage site (N); made in house; host or cells: E. coli C41 (DE3)
T3 sequence (P46108 whole entry, the tested form may be a part): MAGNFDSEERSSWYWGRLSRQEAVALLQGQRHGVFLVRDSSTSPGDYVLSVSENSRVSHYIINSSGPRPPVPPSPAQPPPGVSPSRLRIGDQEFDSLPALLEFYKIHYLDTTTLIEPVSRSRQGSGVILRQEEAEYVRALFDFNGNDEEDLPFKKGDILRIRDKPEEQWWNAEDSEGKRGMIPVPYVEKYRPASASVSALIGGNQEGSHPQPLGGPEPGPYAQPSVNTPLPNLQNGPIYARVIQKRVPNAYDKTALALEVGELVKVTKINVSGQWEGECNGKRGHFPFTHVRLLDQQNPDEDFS
The assay is described as follows: SPR, CrkII FL dimer binding to immobilised PEAK proteins. Particulars: interactor as analyte over biotinylated PEAK protein (biotin CAPture); Biacore 8K+, HBS-TP with 500 mM NaCl, 20 °C; steady-state fit; mean ± SD (N = 2). How it is done:
as §1, §2

The target in another assay is T4, CrkII^NSH3 (Homo sapiens, UniProt P46108).
T4 construct: CrkII^NSH3; UniProt P46108-1, residues 134–191; 8-His tag with TEV protease cleavage site (N); made in house; host or cells: E. coli C41 (DE3)
T4 sequence (P46108 134-191): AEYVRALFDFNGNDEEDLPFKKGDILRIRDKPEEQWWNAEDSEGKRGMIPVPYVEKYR
The assay is described as follows: SPR, CrkII NSH3 binding to immobilised PEAK proteins. Particulars: read-out: CrkII NSH3 SPR KD; interactor as analyte over biotinylated PEAK protein captured with biotin CAPture kit; Biacore 8K+, HBS-TP, 20 °C; steady-state fit; mean ± SD (N = 2); read-out: CrkII-SH2 SPR KD. How it is done:
as §1, §3

The Kd is the equilibrium constant for the complex coming apart.

T1 sequence (P46108 whole entry, the tested form may be a part): as the sequence (P46108 whole entry, the tested form may be a part) above
T2 sequence (P46108 6-120): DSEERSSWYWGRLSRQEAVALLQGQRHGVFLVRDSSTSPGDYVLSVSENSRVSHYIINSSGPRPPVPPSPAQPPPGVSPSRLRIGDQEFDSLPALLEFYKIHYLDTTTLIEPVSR

Regarding “PEAK3-FL E.coli (+ Src phosphorylation): E. coli PEAK3 (1–473) phosphorylated with recombinant Src kinase”, the Kd with CrkII^FL monomer was 2600 nM; with CrkII^FL dimer it was 2110 nM; in the assay with CrkII^NSH3, 13.1 µM. In addition, in the assay with CrkII^SH2, the “SPR KD, CrkII-SH2” value is “No binding”. At 14-3-3ɣ, the “SPR KD, 14-3-3ɣ” value is given as “No binding”.
